The supplement of paper PMC7877785
± gives the uncertainty stated by the source.

Experiment: self-splicing fitness, log relative to wild type (ln ratio); higher = more splicing; Tetrahymena group I intron in knt gene, E. coli kanamycin selection, DiMSum; sequences stand for … in CUCUCU…GGAGGGAAAAGUUAUCAGGCAUGCACCUGGUAGCUAGUCUUUAAACCAAUAGAUUGCAUCGGUUUAAAAGGCAAGACCGUCAAAUUGCGGGAAAGGGGUCAACAGCCGUUCAGUACCAAGUCUCAGGGGAAACUUUGAGAUGGCCUUGCAAAGGGUAUGGUAAUAAGCUGACGGACAUGGUCCUAACCACGCAGCCAAGUCCUAAGUCAACAGAUCUUCUGUUGAUAUGGAUGCAGUUCACAGACUAAAUGUCGGUCGGGGAAGAUGUAUUCUUCUCAUAAGAUAUAGUCGGACCUCUCCUUAAUGGGAGCUAGCGGAUGAAGUGAUGCAACACUGGAGCCGCUGGGAACUAAUUUGUAUGCGAAAGUAUAUUGAUUAGUUUUGGAGUACUCGUGGUCG
Outline: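 Fitness was computed with DiMSum as the error-weighted combination of replicate fold changes, kanamycin versus none, each normalised to wild type. The library randomised all eight intron nucleotides of the P1ex region, with the intron placed in the knt kanamycin-resistance gene on pET-22b(+) in E. coli BL21(DE3). Six replicate transformations were grown overnight at 37°C or 30°C on LB agar with or without 25 μg/mL kanamycin, plus 100 μg/mL carbenicillin, 50 μM IPTG and 0.2% rhamnose. Pooled colonies were amplicon-sequenced on an Illumina HiSeq 2500.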

Sequence	self-splicing fitness (ln) (30 °C)	self-splicing fitness (ln) (37 °C)
UAUUAGCAAUAUUACGUACA	-0.773 ± 0.22	-0.493 ± 0.23
UAUUAGCAAUAUUACGUAGU	-2.56 ± 0.26	-2.47 ± 0.35
UAUUAGCAAUAUUACGUGAU	-2.82 ± 0.17	-1.99 ± 0.18
UAUUAGCAAUAUUACGUGGC		-1.84 ± 0.39
UAUUAGCAAUAUUACGUGUC	-3.34 ± 0.39	
UCAAAGCAAUAUUACGAAAA		-2.95 ± 0.27
UCAAAGCAAUAUUACGAACG	-0.696 ± 0.076	-0.646 ± 0.11
UCAAAGCAAUAUUACGAAUG	-1.71 ± 0.11	-1.67 ± 0.25
UCAAAGCAAUAUUACGAGAC	-3.15 ± 0.17	-2.76 ± 0.22
UCAAAGCAAUAUUACGAGUG	-0.846 ± 0.048	-0.965 ± 0.067
UCAAAGCAAUAUUACGAUCU	-2.82 ± 0.13	-0.778 ± 0.12
UCAAAGCAAUAUUACGCAAG	-2.18 ± 0.14	-1.48 ± 0.15
UCAAAGCAAUAUUACGCAUC	-3.83 ± 0.19	-3.11 ± 0.31
UCAAAGCAAUAUUACGCAUU	-3.2 ± 0.4	-3.34 ± 0.37
UCAAAGCAAUAUUACGCCAC	-2.5 ± 0.24	-2.07 ± 0.38
UCAAAGCAAUAUUACGCCAG	-1.35 ± 0.13	-0.892 ± 0.18
UCAAAGCAAUAUUACGCCCG	-1.66 ± 0.2	-0.884 ± 0.27
UCAAAGCAAUAUUACGCCCU	-3.06 ± 0.44	-0.887 ± 0.18
UCAAAGCAAUAUUACGCGAA	-1.88 ± 0.11	-0.986 ± 0.12
UCAAAGCAAUAUUACGCGCU	-3.63 ± 0.47	-2.53 ± 0.45
UCAAAGCAAUAUUACGCGGA	-2.87 ± 0.13	-1.37 ± 0.11
UCAAAGCAAUAUUACGCUGC	-3.2 ± 0.43	-2.49 ± 0.33
UCAAAGCAAUAUUACGGCUG	-0.827 ± 0.056	0.231 ± 0.078
UCAAAGCAAUAUUACGGGAC	-1.98 ± 0.2	-1.75 ± 0.25
UCAAAGCAAUAUUACGGGCG	-0.842 ± 0.065	-0.266 ± 0.083

Sequence	self-splicing fitness (ln) (30 °C)	self-splicing fitness (ln) (37 °C)
UCAAAGCAAUAUUACGGGGA	-0.69 ± 0.075	-0.383 ± 0.085
UCAAAGCAAUAUUACGUCUA	-1.92 ± 0.1	-0.787 ± 0.098
UCAAAGCAAUAUUACGUGAA	-1.42 ± 0.069	-1.06 ± 0.1
UCAAAGCAAUAUUACGUGGU	-4.25 ± 0.26	-2.19 ± 0.18
UCAAAGCAAUAUUACGUUUG	-3.43 ± 0.16	-1.82 ± 0.14
UCACAGCAAUAUUACGAAAG	-3.82 ± 0.25	-2.73 ± 0.23
UCACAGCAAUAUUACGAGCA	-1.28 ± 0.081	0.102 ± 0.089
UCACAGCAAUAUUACGAGCC	-2.07 ± 0.22	-2.3 ± 0.5
UCACAGCAAUAUUACGCAGA	-2.54 ± 0.12	-2.16 ± 0.14
UCACAGCAAUAUUACGCAUU	-2.93 ± 0.22	
UCACAGCAAUAUUACGCCAC		-3.66 ± 0.3
UCACAGCAAUAUUACGCCCC	-0.433 ± 0.3	-1.51 ± 0.41
UCACAGCAAUAUUACGCGGA	-1.81 ± 0.18	-2.12 ± 0.27
UCACAGCAAUAUUACGCGUC	-3.18 ± 0.31	-1.55 ± 0.16
UCACAGCAAUAUUACGCUAA	-2.39 ± 0.12	-2.27 ± 0.18
UCACAGCAAUAUUACGCUCU	-2.38 ± 0.16	-3.34 ± 0.47
UCACAGCAAUAUUACGCUUG	-2.14 ± 0.12	0.263 ± 0.1
UCACAGCAAUAUUACGGAAA	-3.16 ± 0.24	-1.85 ± 0.18
UCACAGCAAUAUUACGGCAC	-2.93 ± 0.27	-2.49 ± 0.31
UCACAGCAAUAUUACGGUUA	-0.541 ± 0.072	0.291 ± 0.08
UCACAGCAAUAUUACGUAAU	-3.25 ± 0.21	-2.54 ± 0.29
UCACAGCAAUAUUACGUAUA	-2.64 ± 0.12	-1.37 ± 0.1
UCACAGCAAUAUUACGUAUC	-4.32 ± 0.46	-2.75 ± 0.19
UCACAGCAAUAUUACGUCUA	-1.25 ± 0.077	-0.331 ± 0.075
UCAGAGCAAUAUUACGAAGU	-3.13 ± 0.33	

Sequence	self-splicing fitness (ln) (30 °C)	self-splicing fitness (ln) (37 °C)
UCAGAGCAAUAUUACGACAU	-4.002 ± 0.035	-2.6 ± 0.045
UCAGAGCAAUAUUACGACUG	-1.67 ± 0.19	-0.645 ± 0.2
UCAGAGCAAUAUUACGAUGU	-1.87 ± 0.077	-1.41 ± 0.093
UCAGAGCAAUAUUACGCAAA	-1.85 ± 0.23	-2.03 ± 0.46
UCAGAGCAAUAUUACGCAAU	-2.77 ± 0.24	-3.06 ± 0.35
UCAGAGCAAUAUUACGCUGC		-0.708 ± 0.32
UCAGAGCAAUAUUACGGAAC	-2.43 ± 0.2	-2.49 ± 0.26
UCAGAGCAAUAUUACGGCGC	-1.6 ± 0.2	-2.6 ± 0.45
UCAGAGCAAUAUUACGGCGU	-3.42 ± 0.22	-2.05 ± 0.18
UCAGAGCAAUAUUACGUCAA	-3.81 ± 0.4	-2.13 ± 0.23
UCAGAGCAAUAUUACGUCAC	-2.51 ± 0.18	
UCAGAGCAAUAUUACGUCGA	-1.11 ± 0.072	-0.44 ± 0.11
UCAGAGCAAUAUUACGUCUU	-3.53 ± 0.32	-2.53 ± 0.36
UCAGAGCAAUAUUACGUUAU	-2.84 ± 0.19	-3.42 ± 0.4
UCAGAGCAAUAUUACGUUUC	-3.15 ± 0.23	-3.04 ± 0.38
UCAUAGCAAUAUUACGAACG	-0.967 ± 0.085	-0.602 ± 0.12
UCAUAGCAAUAUUACGACCA	-0.368 ± 0.34	-0.568 ± 0.31
UCAUAGCAAUAUUACGAGAG	-2.96 ± 0.24	-2.44 ± 0.22
UCAUAGCAAUAUUACGCAAC	-3.77 ± 0.39	-1.48 ± 0.32
UCAUAGCAAUAUUACGCAGC	-3.15 ± 0.35	-1.03 ± 0.23
UCAUAGCAAUAUUACGCGAA	-2.95 ± 0.23	-1.51 ± 0.15
UCAUAGCAAUAUUACGCGCA	0.0597 ± 0.12	0.225 ± 0.12
UCAUAGCAAUAUUACGCGGU	-3.43 ± 0.25	-2.2 ± 0.25
UCAUAGCAAUAUUACGCUAG	-3.15 ± 0.22	-1.34 ± 0.2
UCAUAGCAAUAUUACGCUCG	-0.651 ± 0.15	-0.277 ± 0.17

Sequence	self-splicing fitness (ln) (30 °C)	self-splicing fitness (ln) (37 °C)
UCAUAGCAAUAUUACGCUGG	-3.05 ± 0.19	-2.3 ± 0.16
UCAUAGCAAUAUUACGGAGA	-1.95 ± 0.17	-0.994 ± 0.13
UCAUAGCAAUAUUACGGCCC		-1.11 ± 0.43
UCAUAGCAAUAUUACGGCUA	-2.69 ± 0.27	-2.37 ± 0.39
UCAUAGCAAUAUUACGGGCU		-2.19 ± 0.32
UCAUAGCAAUAUUACGGUGU	-3.51 ± 0.21	-1.27 ± 0.13
UCAUAGCAAUAUUACGUAAC	-3.57 ± 0.37	-1.6 ± 0.31
UCAUAGCAAUAUUACGUACG	-1.57 ± 0.12	-0.499 ± 0.13
UCAUAGCAAUAUUACGUCUG	-1.16 ± 0.081	-0.895 ± 0.1
UCAUAGCAAUAUUACGUCUU	-3.28 ± 0.24	-3.53 ± 0.32
UCAUAGCAAUAUUACGUGCA	-1.06 ± 0.082	0.377 ± 0.092
UCAUAGCAAUAUUACGUGCC	-3.48 ± 0.41	-1.34 ± 0.23
UCAUAGCAAUAUUACGUUGA	-3.91 ± 0.29	-2.75 ± 0.16
UCCAAGCAAUAUUACGAACC	-1.65 ± 0.25	
UCCAAGCAAUAUUACGAUGC	-2.69 ± 0.31	
UCCAAGCAAUAUUACGCCCG	-2.32 ± 0.26	
UCCAAGCAAUAUUACGCGUA	-0.121 ± 0.056	0.286 ± 0.06
UCCAAGCAAUAUUACGCGUU	-4.5 ± 0.19	-2.33 ± 0.15
UCCAAGCAAUAUUACGCUGU	-2.3 ± 0.14	-2.25 ± 0.17
UCCAAGCAAUAUUACGCUUU	-3.8 ± 0.18	-2.16 ± 0.19
UCCAAGCAAUAUUACGGCGC	-2.4 ± 0.14	-2.5 ± 0.15
UCCAAGCAAUAUUACGGGAU	-3.88 ± 0.22	-2.52 ± 0.16
UCCAAGCAAUAUUACGGGUA	-0.53 ± 0.062	0.199 ± 0.066
UCCAAGCAAUAUUACGGUUG	-3.43 ± 0.13	-3.04 ± 0.19
